Data published in patent publication US20240417704.

Assays:
[1] = biological target: Hel308 Mbu-E284Faz heat treated E284Faz (Methanococcoides burtonii) (UniProt Q12WZ6); details: four nitroindoles between SEQ 155 3' end and SEQ 154 5' end; percent of movements reaching polyT; 500 nM enzyme; nanopore; 960 mM KCl, 10 mM MgCl2, 1 mM ATP
[2] = biological target: Hel308 Mbu-E284Faz E284Faz (Methanococcoides burtonii) (UniProt Q12WZ6); details: four nitroindoles between SEQ 155 3' end and SEQ 154 5' end; percent of movements reaching polyT; nanopore; 960 mM KCl, 10 mM MgCl2, 1 mM ATP, +120 mV
Sequence of Hel308 Mbu-E284Faz E284Faz (Methanococcoides burtonii) (Q12WZ6 whole entry): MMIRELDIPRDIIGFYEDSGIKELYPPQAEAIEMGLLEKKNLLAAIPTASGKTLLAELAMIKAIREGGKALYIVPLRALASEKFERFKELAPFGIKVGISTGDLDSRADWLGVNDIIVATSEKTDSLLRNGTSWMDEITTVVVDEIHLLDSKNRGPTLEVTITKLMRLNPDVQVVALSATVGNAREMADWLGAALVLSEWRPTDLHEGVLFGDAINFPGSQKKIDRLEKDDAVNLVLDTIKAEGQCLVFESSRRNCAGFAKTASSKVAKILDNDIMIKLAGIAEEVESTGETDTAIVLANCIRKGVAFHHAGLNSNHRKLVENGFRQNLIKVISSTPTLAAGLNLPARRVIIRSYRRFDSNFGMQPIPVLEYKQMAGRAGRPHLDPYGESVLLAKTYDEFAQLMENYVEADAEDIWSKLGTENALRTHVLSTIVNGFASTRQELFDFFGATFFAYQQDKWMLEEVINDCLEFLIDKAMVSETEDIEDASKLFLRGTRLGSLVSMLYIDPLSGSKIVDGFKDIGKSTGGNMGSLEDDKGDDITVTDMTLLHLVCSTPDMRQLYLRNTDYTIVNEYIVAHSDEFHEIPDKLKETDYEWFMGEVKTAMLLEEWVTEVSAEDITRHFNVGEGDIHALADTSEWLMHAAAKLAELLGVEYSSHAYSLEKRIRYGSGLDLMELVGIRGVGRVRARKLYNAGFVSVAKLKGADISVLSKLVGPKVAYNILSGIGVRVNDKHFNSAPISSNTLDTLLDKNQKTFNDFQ

Sequence of Hel308 Mbu-E284Faz heat treated E284Faz (Methanococcoides burtonii) (Q12WZ6 whole entry): as above

Substance: 3.6 kb DNA
- activity [1]: 71%
- activity [2]: 28%
